This note sets out measurements from PMC3295573 (2012).

This assay concerns the target T1, LidA(FL), untagged (Legionella pneumophila strain Corby).
T1 chain: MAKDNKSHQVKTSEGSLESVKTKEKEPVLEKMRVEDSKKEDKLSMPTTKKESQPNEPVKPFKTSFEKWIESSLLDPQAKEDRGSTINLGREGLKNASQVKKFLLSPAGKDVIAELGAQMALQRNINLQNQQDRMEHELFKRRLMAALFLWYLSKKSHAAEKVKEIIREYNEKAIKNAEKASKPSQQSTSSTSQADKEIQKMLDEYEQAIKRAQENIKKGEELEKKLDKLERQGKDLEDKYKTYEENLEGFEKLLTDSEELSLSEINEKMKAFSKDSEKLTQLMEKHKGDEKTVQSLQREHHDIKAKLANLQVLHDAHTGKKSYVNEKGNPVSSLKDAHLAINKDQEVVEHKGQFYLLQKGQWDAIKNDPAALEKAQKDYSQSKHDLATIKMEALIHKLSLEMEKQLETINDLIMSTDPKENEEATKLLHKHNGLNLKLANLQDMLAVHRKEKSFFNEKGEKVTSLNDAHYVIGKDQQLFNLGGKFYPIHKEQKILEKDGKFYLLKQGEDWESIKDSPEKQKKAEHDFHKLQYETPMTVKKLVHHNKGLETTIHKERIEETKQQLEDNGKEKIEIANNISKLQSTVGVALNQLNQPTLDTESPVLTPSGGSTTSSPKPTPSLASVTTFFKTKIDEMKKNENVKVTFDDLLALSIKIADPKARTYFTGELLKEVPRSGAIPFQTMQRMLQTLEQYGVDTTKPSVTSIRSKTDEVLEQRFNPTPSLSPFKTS
Briefly: ITC. In general terms: Isothermal titration calorimetry measures the heat released or taken up as one component is titrated into another.

B1: Rab22 (FL) (natural protein)
chain: MALRELKVCLLGDTGVGKSSIVWRFVEDSFDPNINPTIGASFMTKTVQYQNELHKFLIWDTAGQERFRALAPMYYRGSAAAIIVYDITKEETFSTLKNWVKELRQHGPPNIVVAIAGNKCDLIDVREVMERDAKDYADSIHAIFVETSAKNAININELFIEISRRIPSTDANLPSGGKGFKLRRQPSEPKRSCC
Regarding B1, the Kd was 200 nM. This counts as sub-micromolar.

What is called Kd is the free concentration of one partner at which half of the binding sites on the other are occupied at equilibrium, for simple one-to-one binding.
